Our source for the Kd values is paper PMC4013287 (Arteriosclerosis, thrombosis, and vascular biology, 2013).

One assay has as its target von Willebrand factor (UniProt P04275 764-2813). The assay is described as follows: ELISA. For orientation: In an ELISA, binding on a coated surface is turned into a signal by an enzyme label.
The next assay concerns the target type 1 collagen (UniProt P02452). The assay is described as follows: ELISA.

Chain of type 1 collagen (P02452 23-1218, chain 1 of 2): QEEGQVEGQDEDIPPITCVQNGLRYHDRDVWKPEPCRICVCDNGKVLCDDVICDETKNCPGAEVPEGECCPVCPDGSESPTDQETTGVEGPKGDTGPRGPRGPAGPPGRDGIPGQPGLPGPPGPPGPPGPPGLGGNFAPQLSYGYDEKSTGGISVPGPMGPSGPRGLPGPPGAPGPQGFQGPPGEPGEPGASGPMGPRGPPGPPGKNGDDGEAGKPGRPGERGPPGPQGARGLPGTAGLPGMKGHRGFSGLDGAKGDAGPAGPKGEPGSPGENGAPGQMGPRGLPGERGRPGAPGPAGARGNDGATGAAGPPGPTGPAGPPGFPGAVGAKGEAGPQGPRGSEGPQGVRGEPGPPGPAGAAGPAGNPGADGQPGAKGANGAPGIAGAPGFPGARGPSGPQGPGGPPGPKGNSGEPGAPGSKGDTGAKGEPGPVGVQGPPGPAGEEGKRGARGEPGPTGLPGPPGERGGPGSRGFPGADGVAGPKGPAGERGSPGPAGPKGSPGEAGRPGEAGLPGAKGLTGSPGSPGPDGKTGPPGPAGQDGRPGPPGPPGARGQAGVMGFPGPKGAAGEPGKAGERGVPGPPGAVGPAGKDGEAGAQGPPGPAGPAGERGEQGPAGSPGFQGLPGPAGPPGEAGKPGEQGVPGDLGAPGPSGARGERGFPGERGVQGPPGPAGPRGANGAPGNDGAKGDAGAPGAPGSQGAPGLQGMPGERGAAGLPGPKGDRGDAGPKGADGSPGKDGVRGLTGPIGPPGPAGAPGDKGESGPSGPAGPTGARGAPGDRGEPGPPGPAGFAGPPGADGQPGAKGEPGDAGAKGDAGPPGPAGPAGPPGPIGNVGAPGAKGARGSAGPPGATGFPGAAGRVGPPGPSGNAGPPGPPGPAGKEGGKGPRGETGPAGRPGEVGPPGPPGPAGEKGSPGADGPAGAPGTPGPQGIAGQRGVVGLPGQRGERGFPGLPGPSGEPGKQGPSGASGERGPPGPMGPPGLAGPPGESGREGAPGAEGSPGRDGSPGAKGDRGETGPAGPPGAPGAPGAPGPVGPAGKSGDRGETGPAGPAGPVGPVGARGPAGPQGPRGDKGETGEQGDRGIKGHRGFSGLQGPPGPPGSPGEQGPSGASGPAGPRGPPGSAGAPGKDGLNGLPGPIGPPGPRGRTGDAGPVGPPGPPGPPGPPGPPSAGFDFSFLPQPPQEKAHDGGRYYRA
Chain of type 1 collagen (P08123 80-1119, chain 2 of 2, further chain): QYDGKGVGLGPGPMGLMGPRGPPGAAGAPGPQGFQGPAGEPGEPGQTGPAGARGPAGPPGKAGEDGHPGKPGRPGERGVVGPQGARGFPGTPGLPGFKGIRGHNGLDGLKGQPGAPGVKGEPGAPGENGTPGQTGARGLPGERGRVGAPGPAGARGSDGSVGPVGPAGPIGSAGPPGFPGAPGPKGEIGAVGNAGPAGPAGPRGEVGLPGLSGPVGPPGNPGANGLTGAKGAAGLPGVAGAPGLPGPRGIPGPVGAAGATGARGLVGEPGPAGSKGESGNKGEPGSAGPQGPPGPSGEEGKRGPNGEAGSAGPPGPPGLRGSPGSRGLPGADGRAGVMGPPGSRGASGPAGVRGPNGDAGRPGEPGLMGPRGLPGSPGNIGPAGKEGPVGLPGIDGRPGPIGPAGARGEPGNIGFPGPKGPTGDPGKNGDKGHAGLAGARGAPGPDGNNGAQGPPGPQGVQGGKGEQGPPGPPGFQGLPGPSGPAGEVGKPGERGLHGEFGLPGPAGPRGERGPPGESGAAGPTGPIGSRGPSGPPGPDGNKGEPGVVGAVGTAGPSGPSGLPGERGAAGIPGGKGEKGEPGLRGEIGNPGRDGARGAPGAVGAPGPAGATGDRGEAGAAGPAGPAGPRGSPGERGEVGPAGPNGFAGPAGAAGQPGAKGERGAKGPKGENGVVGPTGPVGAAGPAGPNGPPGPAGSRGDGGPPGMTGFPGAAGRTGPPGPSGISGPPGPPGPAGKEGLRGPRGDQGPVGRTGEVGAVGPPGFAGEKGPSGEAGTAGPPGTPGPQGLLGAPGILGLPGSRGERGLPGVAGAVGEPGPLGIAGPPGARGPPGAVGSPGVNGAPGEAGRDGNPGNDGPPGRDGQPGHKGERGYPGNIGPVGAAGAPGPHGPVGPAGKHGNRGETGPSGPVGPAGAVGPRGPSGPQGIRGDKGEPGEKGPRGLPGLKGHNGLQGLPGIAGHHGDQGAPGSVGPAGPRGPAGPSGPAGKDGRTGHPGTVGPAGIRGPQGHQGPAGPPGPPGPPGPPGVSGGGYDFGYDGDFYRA

B1: Recombinant human full-length ADAMTS13 (enzyme, UniProt Q76LX8 75-1427, looked up)
chain: AAGGILHLELLVAVGPDVFQAHQEDTERYVLTNLNIGAELLRDPSLGAQFRVHLVKMVILTEPEGAPNITANLTSSLLSVCGWSQTINPEDDTDPGHADLVLYITRFDLELPDGNRQVRGVTQLGGACSPTWSCLITEDTGFDLGVTIAHEIGHSFGLEHDGAPGSGCGPSGHVMASDGAAPRAGLAWSPCSRRQLLSLLSAGRARCVWDPPRPQPGSAGHPPDAQPGLYYSANEQCRVAFGPKAVACTFAREHLDMCQALSCHTDPLDQSSCSRLLVPLLDGTECGVEKWCSKGRCRSLVELTPIAAVHGRWSSWGPRSPCSRSCGGGVVTRRRQCNNPRPAFGGRACVGADLQAEMCNTQACEKTQLEFMSQQCARTDGQPLRSSPGGASFYHWGAAVPHSQGDALCRHMCRAIGESFIMKRGDSFLDGTRCMPSGPREDGTLSLCVSGSCRTFGCDGRMDSQQVWDRCQVCGGDNSTCSPRKGSFTAGRAREYVTFLTVTPNLTSVYIANHRPLFTHLAVRIGGRYVVAGKMSISPNTTYPSLLEDGRVEYRVALTEDRLPRLEEIRIWGPLQEDADIQVYRRYGEEYGNLTRPDITFTYFQPKPRQAWVWAAVRGPCSVSCGAGLRWVNYSCLDQARKELVETVQCQGSQQPPAWPEACVLEPCPPYWAVGDFGPCSASCGGGLRERPVRCVEAQGSLLKTLPPARCRAGAQQPAVALETCNPQPCPARWEVSEPSSCTSAGGAGLALENETCVPGADGLEAPVTEGPGSVDEKLPAPEPCVGMSCPPGWGHLDATSAGEKAPSPWGSIRTGAQAAHVWTPAAGSCSVSCGRGLMELRFLCMDSALRVPVQEELCGLASKPGSRREVCQAVPCPARWQYKLAACSVSCGRGVVRRILYCARAHGEDDGEEILLDTQCQGLPRPEPQEACSLEPCPPRWKVMSLGPCSASCGLGTARRSVACVQLDQGQDVEVDEAACAALVRPEASVPCLIADCTYRWHVGTWMECSVSCGDGIQRRRDTCLGPQAQAPVPADFCQHLPKPVTVRGCWAGPCVGQGTPSLVPHEEAAAPGRTTATPAGASLEWSQARGLLFSPAPQPRRLLPGPQENSVQSSACGRQHLEPTGTIDMRGPGQADCAVAIGRPLGEVVTLRVLESSLNCSAGDMLLLWGRLTWRKMCRKLLDMTFSSKTNTLVVRQRCGRPGGGVLLRYGSQLAPETFYRECDMQLFGPWGEIVSPSLSPATSNAGGCRLFINVAPHARIAIHALATNMGAGTEGANASYILIRDTHSLRTTAFHGQQVLYWESESSQAEMEFSEGFLKAQASLRGQYWTLQSWVPEMQDPQSWKGKEGT
A word on the Kd: it is the concentration at which binding is half-saturated. Higher therefore signals lower affinity. In the case of B1, the dissociation constant (Kd) came to 8.2 ± 1.6 nM with von Willebrand factor and 257 nM with type 1 collagen.
